In publication PMC2199927:

Target: c-myc-tagged Sec8 (S. cerevisiae) (UniProt P32855)
Test: co-IP

B1: Sec4 (natural protein)
chain: MSGLRTVSASSGNGKSYDSIMKILLIGDSGVGKSCLLVRFVEDKFNPSFITTIGIDFKIKTVDINGKKVKLQLWDTAGQERFRTITTAYYRGAMGIILVYDVTDERTFTNIKQWFKTVNEHANDEAQLLLVGNKSDMETRVVTADQGEALAKELGIPFIESSAKNDDNVNEIFFTLAKLIQEKIDSNKLVGVGNGKEGNISINSGSGNSSKSNCC
  percent of the total Sec4 associated (limit of detection): < 0.07%
